Measurements published in publication PMC12473987.

Target: strep-HA3/B (Clostridium botulinum serotype B strain Okra)
Assay: SEC; […], PBS pH 6.0, 0.75 mL/min, […]

## strep-HA3/B (domain or fragment)
  stoichiometry N: 3
